These results are taken from publication PMC2768864 (The Journal of Experimental Medicine, 2009).

B1: plasma kallikrein (enzyme)
heavy: GCLTQLYENAFFRGGDVASMYTPNAQYCQMRCTFHPRCLLFSFLPASSINDMEKRFGCFLKDSVTGTLPKVHRTGAVSGHSLKQCGHQISACHRDIYKGVDMRGVNFNVSKVSSVEECQKRCTSNIRCQFFSYATQTFHKAEYRNNCLLKYSPGGTPTAIKVLSNVESGFSLKPCALSEIGCHMNIFQHLAFSDVDVARVLTPDAFVCRTICTYHPNCLFFTFYTNVWKIESQRNVCLLKTSESGTPSSSTPQENTISGYSLLTCKRTLPEPCHSKIYPGVDFGGEELNVTFVKGVNVCQETCTKMIRCQFFTYSLLPEDCKEEKCKCFLRLSMDGSPTRIAYGTQGSSGYSLRLCNTGDNSVCTTKTSTR
light: not shown
B2: activated factor XII (FXIIa) (enzyme, human)
heavy: IPPWEAPKEHKYKAEEHTVVLTVTGEPCHFPFQYHRQLYHKCTHKGRPGPQPWCATTPNFDQDQRWGYCLEPKKVKDHCSKHSPCQKGGTCVNMPSGPHCLCPQHLTGNHCQKEKCFEPQLLRFFHKNEIWYRTEQAAVARCQCKGPDAHCQRLASQACRTNPCLHGGRCLEVEGHRLCHCPVGYTGAFCDVDTKASCYDGRGLSYRGLARTTLSGAPCQPWASEATYRNVTAEQARNWGLGGHAFCRNPDNDIRPWCFVLNRDRLSWEYCDLAQCQTPTQAAPPTPVSPRLHVPLMPAQPAPPKPQPTTRTPPQSQTPGALPAKREQPPSLTRNGPLSCGQRLRKSLSSMTR
light: VVGGLVALRGAHPYIAALYWGHSFCAGSLIAPCWVLTAAHCLQDRPAPEDLTVVLGQERRNHSCEPCQTLAVRSYRLHEAFSPVSYQHDLALLRLQEDADGSCALLSPYVQPVCLPSGAARPSETTLCQVAGWGHQFEGAEEYASFLQEAQVPFLSLERCSAPDVHGSSILPGMLCAGFLEGGTDACQGDSGGPLVCEDQAAERRLTLQGIISWGSGCGDRNKPGVYTDVAYYLAWIREHTVS
B3: Ixodes ricinus contact phase inhibitor (Ir-CPI) (natural protein)
chain: ANHKGRGRPAKCKLPPDDGPCRARIPSYYFDRKTKTCKEFMYGGCEGNENNFENITTCQEECRAKKV

Holding throughout (assay): SPR
(In SPR one partner is held on a chip, and binding of the other changes the refractive index at the surface.)

Assay [1] addresses B3.
In assay [2] the target is B2.
The target of assay [3] is activated factor XI (FXIa) (human, UniProt P03951 19-387; P03951 388-625).
activated factor XI (FXIa), sequence (P03951 19-387, chain 1 of 2): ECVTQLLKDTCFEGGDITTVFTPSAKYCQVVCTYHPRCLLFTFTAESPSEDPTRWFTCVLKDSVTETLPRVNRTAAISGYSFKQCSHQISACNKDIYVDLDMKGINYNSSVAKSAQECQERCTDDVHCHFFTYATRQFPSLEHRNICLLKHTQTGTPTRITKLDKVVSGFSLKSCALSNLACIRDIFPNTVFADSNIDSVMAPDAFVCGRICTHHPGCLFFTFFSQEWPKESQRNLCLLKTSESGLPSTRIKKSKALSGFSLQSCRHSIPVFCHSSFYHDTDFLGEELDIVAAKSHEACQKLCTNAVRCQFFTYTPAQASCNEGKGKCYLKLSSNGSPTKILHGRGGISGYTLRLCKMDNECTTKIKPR
activated factor XI (FXIa), sequence (P03951 388-625, chain 2 of 2): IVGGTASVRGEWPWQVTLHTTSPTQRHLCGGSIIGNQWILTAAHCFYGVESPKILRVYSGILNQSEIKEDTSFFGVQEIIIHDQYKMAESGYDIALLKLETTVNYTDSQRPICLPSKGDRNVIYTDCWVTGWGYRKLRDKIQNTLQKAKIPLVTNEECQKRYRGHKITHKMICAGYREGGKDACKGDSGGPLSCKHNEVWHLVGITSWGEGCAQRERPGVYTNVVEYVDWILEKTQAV
The assay “plasma kallikrein” deals with B1.

plasma kallikrein, sequence (P03952 391-638): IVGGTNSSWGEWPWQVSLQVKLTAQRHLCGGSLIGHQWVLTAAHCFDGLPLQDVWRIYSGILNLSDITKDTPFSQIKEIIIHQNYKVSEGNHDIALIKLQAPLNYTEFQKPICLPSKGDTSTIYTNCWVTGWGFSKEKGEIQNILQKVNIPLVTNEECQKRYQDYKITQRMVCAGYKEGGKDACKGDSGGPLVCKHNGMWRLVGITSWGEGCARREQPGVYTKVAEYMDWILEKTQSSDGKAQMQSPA

For the molecule B1, in assay [1], the “ka1 (two-state model, formation of AB)” value came out at 34900 M⁻¹ s⁻¹; the “ka2 (two-state model, forward conformation change)” value was determined as 0.00834 s⁻¹; the “kd1 (two-state model, dissociation of AB)” value was determined as 0.0532 s⁻¹; the “kd2 (two-state model, backward conformation change)” value amounted to 0.00142 s⁻¹.

Turning to B2, in assay [1], the “ka1 (two-state model, formation of AB)” value came out at 219000 M⁻¹ s⁻¹; the “ka2 (two-state model, forward conformation change)” value amounted to 0.655 s⁻¹; the “kd1 (two-state model, dissociation of AB)” value stood at 0.0946 s⁻¹; the “kd2 (two-state model, backward conformation change)” value worked out at 0.105 s⁻¹.

With B3, the Ka in assay [2] was 1.68e+08 M⁻¹; in assay [3], 3.83e+08 M⁻¹; with plasma kallikrein, 4.51e+06 M⁻¹.
